{"source": "the nanobody polyreactivity screen of Harvey et al. (2022)", "data": [{"assay": "yeast display, Sf9 membrane polyspecificity reagent, FACS + sequencing; frameworks hold sequencing errors", "how_it_was_run": "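In a synthetic yeast display library (Saccharomyces cerevisiae BJ5465), nanobody expression was induced with galactose for 36–48 hours. FACS gates were set low and high (top ~1%) using anti-HA fluorescence for expression and streptavidin fluorescence for binding of the Sf9 membrane reagent. Each polyreactivity label is drawn from the gate of origin.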", "values": [{"sequence": "QVQLVESGGGLVQAGGSLRLSCAASGNTFGYNAMGWYRQAPGKERELVASITWSGGSTYYADSVKGRFTISRDNAKNTVYLEMKSLKPEDTAVYYCNADVRYGRDHWGQGTQVTVSS", "polyreactivity (PSR sort gate)": "low polyreactivity"}, {"sequence": "QVQLVESGGGLVQAGGSLRLSCAASGNTFIDYAMGWYRQAPGKERELVASITSGGGSTYYADSVKGRFTISRDNAKNTVYLQMNSLKPEDTAVYYCAAERYYSEAIFRSYDYWGQGTQVTVSS", "polyreactivity (PSR sort gate)": "low polyreactivity"}, {"sequence": "QVQLVESGGGLVQAGGSLRLSCAASGNTFIPNAMGWYRQAPGKERELVAAIRASGGSTYYADSVKGRFTISRDNAKNTVYLLMNSLKPEDTAVYYCNDDIWYKTYDYWGQGTQVTVSS", "polyreactivity (PSR sort gate)": "low polyreactivity"}, {"sequence": "QVQLVESGGGLVQAGGSLRLSCAASGNTFIRNVMGWYRQAPGKERELVAGSRTGGSTFYADSVKGRFTISRDNAKNTVYLQMNSLKPEDTAVYYCNADVGDEGNLPYVIRPMDYWGQGTQVTVSS", "polyreactivity (PSR sort gate)": "low polyreactivity"}, {"sequence": "QVQLVESGGGLVQAGGSLRLSCAASGNTFKGYAMGWYRQAPGKERELVAAISWSGSSTYYADSVKGRFTISRDYAKNTVYLQMNILKPEDTAVYYCNRKYLGRYASVYGYGYWGQGTQVTVSS", "polyreactivity (PSR sort gate)": "high polyreactivity"}, {"sequence": "QVQLVESGGGLVQAGGSLRLSCAASGNTFLIYAMGWYRQAPGKERELVAGITSSGSTYYADSVKGRFTISRDNAKNTVYLQMNSLKPEDTAVFYCAAEYIFYLYYDTAELYDYWGQGTQVTVSS", "polyreactivity (PSR sort gate)": "low polyreactivity"}, {"sequence": "QVQLVESGGGLVQAGGSLRLSCAASGNTFLRYAMGWYRQAPGKERELVAAISRSGGSTYYADSVKGRFTISRDNAKNTVYLQMNSLKPEDTAVYYCATRVYFSPYRYDYWGQGTQVTVSS", "polyreactivity (PSR sort gate)": "high polyreactivity"}, {"sequence": "QVQLVESGGGLVQAGGSLRLSCAASGNTFLYYSMGWYRQAPGKEMELVASINLSDGSTYYADSVKGRFTISRDNAKNTVYFQMNSLKPEDTAVYYCAAVYGGYTIYDYWGQGTQVTVSS", "polyreactivity (PSR sort gate)": "low polyreactivity"}, {"sequence": "QVQLVESGGGLVQAGGSLRLSCAASGNTFNENAMGWYRQSPGKERELVAAITSSGVSTFYADSVKGRFTISRDNAKNTVYLQMNSLKPEDTAVYYCAAEYYELDEYTGDYWVGSDYWGQGTQVTVSS", "polyreactivity (PSR sort gate)": "low polyreactivity"}, {"sequence": "QVQLVESGGGLVQAGGSLRLSCAASGNTFNLYAMGWYRQAPGKERELVASMTSGGGTNYADSVKGRFTISRDNAKNTVYLQMNSLKPEDTAFFYCAATDWFSEYYWGQGTQVTVSS", "polyreactivity (PSR sort gate)": "low polyreactivity"}, {"sequence": "QVQLVESGGGLVQAGGSLRLSCAASGNTFNVYAMGWYRQAPGKERELVAAITLSGGSTYYADSVKGRFTFSRDNAKNTVYLQMNSLKPEDTAVYYCNAEDDGTDYDYWGQGTEVTVSS", "polyreactivity (PSR sort gate)": "low polyreactivity"}, {"sequence": "QVQLVESGGGLVQAGGSLRLSCAASGNTFNYNAMGWYRQAPGKERELVAAITSSGGSTYYADSVKGRFTISRDYAKNTVYLQMNSLKPDDTAVYYCAADLWQDSYSYWFDYWGQGTQVTVSS", "polyreactivity (PSR sort gate)": "high polyreactivity"}, {"sequence": "QVQLVESGGGLVQAGGSLRLSCAASGNTFPVYAMGWYRKASGKERELVATITSGGSTNYADSVKGRFTFSRDNAKNTVYLQMNSLKPEDTAVYYCARRAVYSKRRYDYWGHGTQVTVSS", "polyreactivity (PSR sort gate)": "low polyreactivity"}, {"sequence": "QVQLVESGGGLVQAGGSLRLSCAASGNTFPVYAMGWYRQASGKERELVATITSGGSTNYADSVKGRFTISRDNAKNTVYLQMNSLKQEDTAVYYCARRAVYSKRRYDYWGQGTQVTVSS", "polyreactivity (PSR sort gate)": "low polyreactivity"}, {"sequence": "QVQLVESGGGLVQAGGSLRLSCAASGNTFQDYAMGWYRQAPGKERELVAAITQSGGSTFYADSVKGRFTISRDNAKNTVYLQMNSLKPEDTAVYYCATRTRYPRYYYWGQGTQVTVSS", "polyreactivity (PSR sort gate)": "high polyreactivity"}, {"sequence": "QVQLVESGGGLVQAGGSLRLSCAASGNTFQWYVMGWYRQAPGKERELVAAITTRGGSTYYADSVKGRFTISRDNAKNTVYLQMNSLKPEDTAVYYCAKDWYASWYTKYDYWGQGTQVTVSS", "polyreactivity (PSR sort gate)": "low polyreactivity"}, {"sequence": "QVQLVESGGGLVQAGGSLRLSCAASGNTFRAYAMGWYRQAPGKERELVATITWSGGITDYADSVKGRFTISRDNAKNTVYLQMNSLKPEDTAVYYCAARSYRWWNFNYWGQGTQVTVSS", "polyreactivity (PSR sort gate)": "high polyreactivity"}, {"sequence": "QVQLVESGGGLVQAGGSLRLSCAASGNTFREYGMGWYRQAPGKERELVAAISSTGSTNYADSVKGRFTISRDNAKNTVYLQMNSLKPEDTAVYYCNRDRVWGSGVRTRGDYWGQVTQVTVSS", "polyreactivity (PSR sort gate)": "low polyreactivity"}, {"sequence": "QVQLVESGGGLVQAGGSLRLSCAASGNTFRLYGMGWYRQAPGKERELVAAIRSGDRTYYADSVKGRFTISRDNAKNTVYLQMNSLKPEDTAVYYCAARVNLSKLFGYWGQGTQVTVSS", "polyreactivity (PSR sort gate)": "high polyreactivity"}, {"sequence": "QVQLVESGGGLVQAGGSLRLSCAASGNTFRRYAMGWYRQAPGKERELVAAISYRGGSTYYADSVKGRFTISRDNAQNTVYLQMNSLKPEDTAVSYCNARFATSVLYDYWGQGTQVTVSS", "polyreactivity (PSR sort gate)": "high polyreactivity"}, {"sequence": "QVQLVESGGGLVQAGGSLRLSCAASGNTFRYYAMGWYRQAPGKERELVAAISGDGGSTYYADSVKGRFTISRDNAKNTVYLQMNSLKPEDTAVYYCNKAGRRRYRESDYWGQGTQVTVSS", "polyreactivity (PSR sort gate)": "high polyreactivity"}, {"sequence": "QVQLVESGGGLVQAGGSLRLSCAASGNTFSDYAMGWYRQAPGKERELVAAISSSGVRTYYADSVKGRFTISRDNAKNTVYLQMNSLKPEDTAVYYCNAGYVRRYYPASGYGYWGQGTQVTVSS", "polyreactivity (PSR sort gate)": "high polyreactivity"}, {"sequence": "QVQLVESGGGLVQAGGSLRLSCAASGNTFSPNAMGWYRQAPGKERELVAALDSRDGITYYADSVKGRFTISRDNAKNTVYLQMNSLKPEDPAVYYCNAEGSYPDVSPVLGYDYWGQGTQVTVSS", "polyreactivity (PSR sort gate)": "low polyreactivity"}, {"sequence": "QVQLVESGGGLVQAGGSLRLSCAASGNTFSQYAMGWYRQAPGKERELLAAISGSGGDTYYADSVKGRFTISRDNAKNTVYLQMNIMKPEDTAVYYCNADQESVFYEDYDYWGQGTQVTVSS", "polyreactivity (PSR sort gate)": "low polyreactivity"}, {"sequence": "QVQLVESGGGLVQAGGSLRLSCAASGNTFSSNAMGWYRQAPGKERELVAGITKSGGRTYYADSVKGRFTISRDNAKNTVSLQMNSLKPEDTAVYYCAAVGSTVFGTRYYYWGQGTQVTVSS", "polyreactivity (PSR sort gate)": "high polyreactivity"}, {"sequence": "QVQLVESGGGLVQAGGSLRLSCAASGNTFSYYAMGWYRQAPGKEREFVAAIRKSGASTYYADSVKGRFTISRDNAKNTVYLQMNSLKPEDTAVYYCAADGQVSYALGFDYWGQGTQVTVSS", "polyreactivity (PSR sort gate)": "high polyreactivity"}, {"sequence": "QVQLVESGGGLVQAGGSLRLSCAASGNTFTRNTMGWYRQAPGKERELVASISLSGASTYYADSVKGRFTISRDNAKNTVYLQMNSLKPEDTAVYYCAKRRSYGYYRAYNYWGQGTQVTVSS", "polyreactivity (PSR sort gate)": "high polyreactivity"}, {"sequence": "QVQLVESGGGLVQAGGSLRLSCAASGNTFTTNAMGWYRQAPGKERELVAAIRWRADSTYYADSVKGRFTISRDNAKNTVYLQMNSLKPEDTAVYYCASRYSLRYYYWGQGTQVTVSS", "polyreactivity (PSR sort gate)": "low polyreactivity"}, {"sequence": "QVQLVESGGGLVQAGGSLRLSCAASGNTFVPYAMGWYIQAPRKEREFVAAISSTSGSTYYADSVKGRITISRDNAKNTVYLQMNSLKPEDTAVYYCATKRPYSSKRYKYWKVDYWGQGTQVTVSS", "polyreactivity (PSR sort gate)": "high polyreactivity"}, {"sequence": "QVQLVESGGGLVQAGGSLRLSCAASGNTFVRYAMGWYRQAPGKERELVAAITRSGSSTYYADSVKGRFTISRDNAKNTVYLQMNSLKPEDTAVYYCAAYSWYYAGYDYWGQGTQVTVSS", "polyreactivity (PSR sort gate)": "high polyreactivity"}, {"sequence": "QVQLVESGGGLVQAGGSLRLSCAASGNTFVYNDMGWSRQAPGKERELVADIRYSGSTYYADSVMGRFTISRDNAKNTVYLQMNSLKPEDTAVYYCAKAYYVLSWMGYWGQGTPVTVSS", "polyreactivity (PSR sort gate)": "low polyreactivity"}, {"sequence": "QVQLVESGGGLVQAGGSLRLSCAASGNTFWLNAMGWYRQAPGKERELVASISYSGASTYYADSVKGRFTISRDNAKNTVYFQMNSLKPEDTAVYYCNTDGDDFFHVIYDYWGQGTQVTVSS", "polyreactivity (PSR sort gate)": "low polyreactivity"}, {"sequence": "QVQLVESGGGLVQAGGSLRLSCAASGNTFYANVMGWYRQAPGKERELVASITWSGGSTYYADSVKGRFTISRDNAKNTVYLQMNSLKPEDTAVYYCATSGDRLVWGQGTQVTVSS", "polyreactivity (PSR sort gate)": "low polyreactivity"}, {"sequence": "QVQLVESGGGLVQAGGSLRLSCAASGNTFYAYAMGWYRQAPGKERELVASITLSGDSTYYADSVKGRFTISRDNAKNSVYLQMSSLIPEDTAVYYCAGVYTYPLGYYHYTYDYWGQGTQVTVSS", "polyreactivity (PSR sort gate)": "low polyreactivity"}, {"sequence": "QVQLVESGGGLVQAGGSLRLSCAASGNTFYGYAMGWYRQAPGKERELVAAIRGSDGITFYADSVKGRFTISRDNAKNTVYLQMNSLKPEDTAVYYCAKDTYRSPRHDYGYWGQGTQVTVSS", "polyreactivity (PSR sort gate)": "low polyreactivity"}, {"sequence": "QVQLVESGGGLVQAGGSLRLSCAASGNTFYINAMGWYRQAPGKERELVAAINYSGDSTYADSVKGRFTISRDNAKNTVYLQMNSLKPEDSAVYYCAADWYFSVYIDYDTEYDYWGQGTQVTVSS", "polyreactivity (PSR sort gate)": "low polyreactivity"}, {"sequence": "QVQLVESGGGLVQAGGSLRLSCAASGNTFYINAMGWYRQAPGKERELVAAINYSGESTYADSVKGRFTISRDNAKNTVYFQMNSLKPEDTAVYYCAADWYFSVYIDYDTEYDYWGQGTQVTVSS", "polyreactivity (PSR sort gate)": "low polyreactivity"}, {"sequence": "QVQLVESGGGLVQAGGSLRLSCAASGNTFYPYAMGWYRQAPGKERELVATIRGSDDSTYYADSVKGRFTISRDNAKNTVYLQMNSLKPEDTAVYDCAADDVVSTFLRGYVRYDYWGQGTQVTVSS", "polyreactivity (PSR sort gate)": "high polyreactivity"}, {"sequence": "QVQLVESGGGLVQAGGSLRLSCAASGNTFYRYAMGWNRQAPGKERELVAAISNGGSTNYADSVKGRFTISRDNAKNTVYLQMNSLKPEDSAVYYWAAANTRRYTHGFWGHGTQVTVSS", "polyreactivity (PSR sort gate)": "high polyreactivity"}, {"sequence": "QVQLVESGGGLVQAGGSLRLSCAASGNTFYVNVMGWYRPAPGKEREFVAAISTRGVSTSYADSVKGRFTISRDNAKNTVYFQMNSLKPEDTAVYYGAARYYYRDWVGIISTYYYWGQGTQVTVSS", "polyreactivity (PSR sort gate)": "high polyreactivity"}, {"sequence": "QVQLVESGGGLVQAGGSLRLSCAASGNTFYWNAMGWYRQAAGKERELVAAISTTGVSTYYADSVKGRFTISRDNAKNTVYLQMNSLKPEDTAVYYCATVSYYDRYDYDYWGQGTQVTVSS", "polyreactivity (PSR sort gate)": "low polyreactivity"}, {"sequence": "QVQLVESGGGLVQAGGSLRLSCAASGNTINKYAMGWYRQAPGKERELVAAITRSGGSTYYADSVKGRFTISRDKAKNTVYLQMNSLKPEDTAVYYCAAAYWILYYPIDQAFDYWGQGTQVTVSS", "polyreactivity (PSR sort gate)": "low polyreactivity"}, {"sequence": "QVQLVESGGGLVQAGGSLRLSCAASGNTLLSYAMGWYRQAPGKEWELVAAISIDGSTIYADSVKGRFTISRDNAKNTVYLQMNSLKPEDTAVYYCNADRTPFAEMDYWGQGTQVTVSS", "polyreactivity (PSR sort gate)": "low polyreactivity"}]}]}
